2 molecules from patent publication US20180305449A1 (ONCOMED PHARMACEUTICALS, published 2018) can be followed below.

The target of test [1] is T1, Recombinant human DLL4-Fc (human, UniProt Q9NR61 27-522, limits assumed).
T1 construct: also called hDLL4; hDLL4-Fc; not shown: Fc portion
Put plainly: SPR (Biacore 2000), human DLL4-Fc amine-coupled on CM5 chip, antibody as analyte. As to the method: The KDs of parental antibodies anti-VEGF 219R45 (IgG format), anti-DLL4 21R79 (IgG format), anti-DLL4 21M18 (IgG format) and bispecific antibodies 219R45-MB-21M18 and 219R45-MB-21R79 were determined using a Biacore 2000 system from Biacore LifeSciences (GE Healthcare). Recombinant human DLL4-Fc or mouse DLL4-Fc proteins were immobilized on CM5 carboxyl chips using standard amine-based chemistry (NHS/EDC) and blocked with ethanolamine Recombinant human VEGF₁₆₅ or mouse VEGF₁₆₅ were biotinylated and immobilized on streptavidin chips. The antibodies were serially diluted 2-fold from 100 nM to 0.78 nM in HBS-P (0.01M HEPES pH7.4, 0.15M NaCl, 0.005% v/v Polysorbate 20). For each antibody, all 8 dilutions were sequentially injected over a specific chip. Kinetic data were collected over time and were fit using the simultaneous global fit equation to yield affinity constants (KD values) for each bispecific antibody.
Several additional anti-DLL4 antibodies were identified that had binding affinities intermediate to the KDs of 21M18 and 21R79. Two of these anti-DLL4 antibodies were used to produce anti-VEGF/anti-DLL4 bispecific antibodies 219R45-MB-21R75 and 219R45-MB-21R83. Using the Biacore 2000 system as described above, the KDs of the bispecific antibodies 219R45-MB-21R75 and 219R45-MB-21R83 to human DLL4 were determined.
(Surface plasmon resonance follows binding to a sensor surface in real time, without labels.)

In test [2] the target is T2, biotin-DLL4-hFc (UniProt Q9NR61 27-522, limits assumed, biotinylated (site not stated)).
T2 construct: not shown: human Fc (hFc)
T2 sequence (Q9NR61 27-522 limits assumed): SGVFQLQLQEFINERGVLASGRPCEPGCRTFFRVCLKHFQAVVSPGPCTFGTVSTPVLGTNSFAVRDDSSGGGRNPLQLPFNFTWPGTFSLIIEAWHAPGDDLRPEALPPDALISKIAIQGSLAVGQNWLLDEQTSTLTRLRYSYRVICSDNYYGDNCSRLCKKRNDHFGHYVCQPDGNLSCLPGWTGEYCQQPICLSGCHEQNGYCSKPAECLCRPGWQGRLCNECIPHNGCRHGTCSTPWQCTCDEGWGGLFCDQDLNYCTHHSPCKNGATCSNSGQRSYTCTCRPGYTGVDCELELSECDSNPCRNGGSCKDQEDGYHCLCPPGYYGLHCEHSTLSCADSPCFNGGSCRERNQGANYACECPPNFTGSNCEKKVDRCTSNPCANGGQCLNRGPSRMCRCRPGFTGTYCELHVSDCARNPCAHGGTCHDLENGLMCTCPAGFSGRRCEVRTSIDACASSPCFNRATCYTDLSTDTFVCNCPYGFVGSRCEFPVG
Put plainly: bispecific sandwich ELISA: antibody pre-incubated with 2 ug/ml biotin-DLL4-hFc, captured on VEGF-coated plate, detected with streptavidin-HRP. As to the method:
(§1) FIG. 7. Bispecific antibody ELISA. Bispecific antibodies 219R45-MB-21M18, 219R45-MB-21R79, 219R45-MB-21R75, and 219R45-MB-21R83 were diluted in blocking buffer (lx PBS, 0.1% gelatin, 0.1% Polysorbate-20, pH 7.4) containing 2 μg/ml biotin-DLL4-hFc. The antibodies were serially diluted 3-fold from 500 ng/ml to 0.008 ng/ml. The antibody samples were incubated for 2 hours in blocking buffer containing the biotin-DLL4-hFc. After incubation, the antibody samples were transferred to a VEGF-coated assay plate (100 ul/well) and incubated for 2 hours. Streptavidin-HRP was added to each well and incubated for 1 hr. TMB substrate was added to the wells with a 10 minute color development and the reaction was stopped with 2M sulfuric acid. Absorbance was read at 450-650 nm and the data analyzed using the 4-parameter fit within the Softmax Pro analysis program.
as §1, with “VEGF (ATGEN, South Korea) was coated onto Nunc maxisorb plates at 2 ug/ml (100 μl/well) and incubated overnight at 2-8° C. Bispecific” for “FIG. 7. Bispecific antibody ELISA. Bispecific”, “to the” for “to a”, “Streptavidin-HRP (Jackson ImmunoResearch, West Grove, Pa.)” for “Streptavidin-HRP”, “analysis program (Molecular Devices, Sunnyvale, Calif.).” for “analysis program.”

In test [3] the target is T2, biotin-DLL4-hFc. Put plainly: Bispecific bridging ELISA: antibody pre-incubated with biotin-DLL4-hFc, captured on VEGF (ATGEN)-coated plate, streptavidin-HRP; potency relative to a reference anti-VEGF/anti-DLL4 bispecific antibody. On the procedure:
as §1, with “VEGF (ATGEN, South Korea) was coated onto Nunc maxisorb plates at 2 ug/ml (100 μl/well) and incubated overnight at 2-8° C. Bispecific” for “FIG. 7. Bispecific antibody ELISA. Bispecific”, “to the” for “to a”, “Streptavidin-HRP (Jackson ImmunoResearch, West Grove, Pa.)” for “Streptavidin-HRP”, “analysis program (Molecular Devices, Sunnyvale, Calif.).” for “analysis program.”
A general note: An ELISA detects its analyte on a solid surface through an enzyme-linked reagent.

T1 sequence (Q9NR61 27-522 limits assumed): as above

B1: anti-VEGF/anti-DLL4 bispecific antibody 219R45-MB-21R83 (bispecific antibody, human IgG2)
heavy 1: QVQLVQSGAEVKKPGASVKVSCKASGYTFTNYWMHWVRQAPGQGLEWMGDINPSNGRTSYKEKFKRRVTLSVDKSSSTAYMELSSLRSEDTAVYFCTIHYDDKYYPLMDYWGQGTLVTVSSASTKGPSVFPLAPCSRSTSESTAALGCLVKDYFPEPVTVSWNSGALTSGVHTFPAVLQSSGLYSLSSVVTVPSSNFGTQTYTCNVDHKPSNTKVDKTVERKCCVECPPCPAPPVAGPSVFLFPPKPKDTLMISRTPEVTCVVVDVSHEDPEVQFNWYVDGVEVHNAKTKPREEQFNSTFRVVSVLTVVHQDWLNGKEYKCKVSNKGLPAPIEKTISKTKGQPREPQVYTLPPSREKMTKNQVSLTCLVKGFYPSDIAVEWESNGQPENNYKTTPPMLKSDGSFFLYSKLTVDKSRWQQGNVFSCSVMHEALHNHYTQKSLSLSPGK
heavy 2: QVQLVQSGAEVKKPGASVKISCKASGYSFTAYYIHWVKQAPGQGLEWIGYISNYNRATNYNQKFKGRVTFTTDTSTSTAYMELRSLRSDDTAVYYCARDYDYDVGMDYWGQGTLVTVSSASTKGPSVFPLAPCSRSTSESTAALGCLVKDYFPEPVTVSWNSGALTSGVHTFPAVLQSSGLYSLSSVVTVPSSNFGTQTYTCNVDHKPSNTKVDKTVERKCCVECPPCPAPPVAGPSVFLFPPKPKDTLMISRTPEVTCVVVDVSHEDPEVQFNWYVDGVEVHNAKTKPREEQFNSTFRVVSVLTVVHQDWLNGKEYKCKVSNKGLPAPIEKTISKTKGQPREPQVYTLPPSREEMTKNQVSLTCLVEGFYPSDIAVEWESNGQPENNYKTTPPMLDSDGSFFLYSELTVDKSRWQQGNVFSCSVMHEALHNHYTQKSLSLSPGK
light: DIVMTQSPDSLAVSLGERATISCRASESVDNYGISFMKWFQQKPGQPPKLLIYAASNQGSGVPDRFSGSGSGTDFTLTISSLQAEDVAVYYCQQSKEVPWTFGGGTKVEIKRTVAAPSVIFPPSDEQLKSGTASVVCLLNNFYPREAKVQWKVDNALQSGNSQESVTEQDSKDSTYSLSSTLTLSKADYEKHKVYACEVTHQGLSSPVTKSFNRGEC
notes: Monovalent/bispecific IgG2 heterodimer with charge-modified CH3 domains and two identical light chains
As for B1, in test [1], the Kd was 1.3 nM. For the same molecule, the “EC50 (read off the curve)” value with biotin-DLL4-hFc [2] is about 1 ng/mL. Further, in the test with biotin-DLL4-hFc [3], the “Relative Potency (%)” value worked out at 222%.

B2: anti-VEGF/anti-DLL4 bispecific antibody 219R45-MB-21R75 (bispecific antibody, human IgG2)
heavy 1: QVQLVQSGAEVKKPGASVKVSCKASGYTFTNYWMHWVRQAPGQGLEWMGDINPSNGRTSYKEKFKRRVTLSVDKSSSTAYMELSSLRSEDTAVYFCTIHYDDKYYPLMDYWGQGTLVTVSSASTKGPSVFPLAPCSRSTSESTAALGCLVKDYFPEPVTVSWNSGALTSGVHTFPAVLQSSGLYSLSSVVTVPSSNFGTQTYTCNVDHKPSNTKVDKTVERKCCVECPPCPAPPVAGPSVFLFPPKPKDTLMISRTPEVTCVVVDVSHEDPEVQFNWYVDGVEVHNAKTKPREEQFNSTFRVVSVLTVVHQDWLNGKEYKCKVSNKGLPAPIEKTISKTKGQPREPQVYTLPPSREKMTKNQVSLTCLVKGFYPSDIAVEWESNGQPENNYKTTPPMLKSDGSFFLYSKLTVDKSRWQQGNVFSCSVMHEALHNHYTQKSLSLSPGK
heavy 2: QVQLVQSGAEVKKPGASVKISCKASGYSFTAYYIHWVKQAPGQGLEWIGYIAGYKDATNYNQKFKGRVTFTTDTSTSTAYMELRSLRSDDTAVYYCARDYDYDVGMDYWGQGTLVTVSSASTKGPSVFPLAPCSRSTSESTAALGCLVKDYFPEPVTVSWNSGALTSGVHTFPAVLQSSGLYSLSSVVTVPSSNFGTQTYTCNVDHKPSNTKVDKTVERKCCVECPPCPAPPVAGPSVFLFPPKPKDTLMISRTPEVTCVVVDVSHEDPEVQFNWYVDGVEVHNAKTKPREEQFNSTFRVVSVLTVVHQDWLNGKEYKCKVSNKGLPAPIEKTISKTKGQPREPQVYTLPPSREEMTKNQVSLTCLVEGFYPSDIAVEWESNGQPENNYKTTPPMLDSDGSFFLYSELTVDKSRWQQGNVFSCSVMHEALHNHYTQKSLSLSPGK
light: DIVMTQSPDSLAVSLGERATISCRASESVDNYGISFMKWFQQKPGQPPKLLIYAASNQGSGVPDRFSGSGSGTDFTLTISSLQAEDVAVYYCQQSKEVPWTFGGGTKVEIKRTVAAPSVIFPPSDEQLKSGTASVVCLLNNFYPREAKVQWKVDNALQSGNSQESVTEQDSKDSTYSLSSTLTLSKADYEKHKVYACEVTHQGLSSPVTKSFNRGEC
notes: as for B1
With B2, the Kd in test [1] is 5.1 nM. The “EC50 (read off the curve)” value in the test with biotin-DLL4-hFc [2] is about 0.8 ng/mL. In addition, in the test with biotin-DLL4-hFc [3], the “Relative Potency (%)” value worked out at 422%.

One may read the Kd as the free concentration of one partner at which half of the binding sites on the other are occupied at equilibrium, for simple one-to-one binding. A word on the EC50 (read off the curve): it is the concentration needed to bring the measured effect to its halfway point.
